Key:
[1] = target: C155 (V11I, C38A, D40A, K53A, C76A, C127A) (human) (UniProt Q14116); assay: cell-based or functional assay
[2] = target: IL-18 polypeptide SEQ ID NO: 50 (E06K, K53A, T63A) (human) (UniProt Q14116); assay: cell-based or functional assay
[3] = target: C165 (V11I, C38A, S55R, C76A, C127A) (human) (UniProt Q14116); assay: cell-based or functional assay
[4] = target: C161 (K8R, V11I, C38A, C76A, Q103E, C127A) (human) (UniProt Q14116); assay: cell-based or functional assay
[5] = target: IL-18 polypeptide SEQ ID NO: 59 (E6K, C38A, K53A) (human) (UniProt Q14116); assay: cell-based or functional assay
IL-18 polypeptide SEQ ID NO: 59 (E6K, C38A, K53A) (human), sequence (Q14116 other isoform, or with tags, fused parts or gaps C38A K53A C38A K53A): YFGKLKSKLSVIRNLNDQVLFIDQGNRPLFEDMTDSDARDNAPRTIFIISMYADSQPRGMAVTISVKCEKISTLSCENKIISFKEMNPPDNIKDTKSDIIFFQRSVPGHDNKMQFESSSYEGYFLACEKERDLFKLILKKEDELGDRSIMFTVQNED

[6] = target: IL-18 polypeptide SEQ ID NO: 41 (K53A, S55A) (human) (UniProt Q14116); assay: cell-based or functional assay
IL-18 polypeptide SEQ ID NO: 41 (K53A, S55A) (human), sequence (Q14116 37-193 K89A/S91A): as the sequence (Q14116 other isoform, or with tags, fused parts or gaps C38A K53A C38A K53A) above, with K6E, A38C, S55A counted along it

[7] = target: C158 (V11I, C38A, K53A, C76A, G108A, C127A) (human) (UniProt Q14116); assay: cell-based or functional assay
C158 (V11I, C38A, K53A, C76A, G108A, C127A) (human), sequence (Q14116 37-193 V47I/C74A/K89A/C112A/G144A/C163A): as the sequence (Q14116 other isoform, or with tags, fused parts or gaps C38A K53A C38A K53A) above, with K6E, V11I, C76A, G108A, C127A counted along it

[8] = target: IL-18 polypeptide SEQ ID NO: 55 (K53A, T63A, C38S, C68S, C76S, C127S, K70C) (human) (UniProt Q14116); assay: cell-based or functional assay
IL-18 polypeptide SEQ ID NO: 55 (K53A, T63A, C38S, C68S, C76S, C127S, K70C) (human), sequence (Q14116 37-193 C74S/K89A/T99A/C104S/K106C/C112S/C163S): as the sequence (Q14116 other isoform, or with tags, fused parts or gaps C38A K53A C38A K53A) above, with K6E, A38S, T63A, C68S, K70C, C76S, C127S counted along it

[9] = target: IL-18 polypeptide SEQ ID NO: 35 (Y01G, F02A, E06K, M51G, K53A, D54A, S55A, T63A) (human) (UniProt Q14116); assay: cell-based or functional assay
IL-18 polypeptide SEQ ID NO: 35 (Y01G, F02A, E06K, M51G, K53A, D54A, S55A, T63A) (human), sequence (Q14116 37-193 Y37G/F38A/E42K/M87G/K89A/D90A/S91A/T99A): as the sequence (Q14116 other isoform, or with tags, fused parts or gaps C38A K53A C38A K53A) above, with Y1G, F2A, A38C, M51G, D54A, S55A, T63A counted along it

[10] = target: IL-18 polypeptide SEQ ID NO: 38 (E06K) (human) (UniProt Q14116); assay: cell-based or functional assay
IL-18 polypeptide SEQ ID NO: 38 (E06K) (human), sequence (Q14116 37-193 E42K): as the sequence (Q14116 other isoform, or with tags, fused parts or gaps C38A K53A C38A K53A) above, with A38C, A53K counted along it

[11] = target: IL-18 polypeptide SEQ ID NO: 47 (C38S, C68S, C76S, C127S) (human) (UniProt Q14116); assay: cell-based or functional assay
IL-18 polypeptide SEQ ID NO: 47 (C38S, C68S, C76S, C127S) (human), sequence (Q14116 37-193 C74S/C104S/C112S/C163S): as the sequence (Q14116 other isoform, or with tags, fused parts or gaps C38A K53A C38A K53A) above, with K6E, A38S, A53K, C68S, C76S, C127S counted along it

[12] = target: C145 (V11I, C38A, K53A, S55A, C76A, C127A) (human) (UniProt Q14116); assay: cell-based or functional assay
C145 (V11I, C38A, K53A, S55A, C76A, C127A) (human), sequence (Q14116 37-193 V47I/C74A/K89A/S91A/C112A/C163A): as the sequence (Q14116 other isoform, or with tags, fused parts or gaps C38A K53A C38A K53A) above, with K6E, V11I, S55A, C76A, C127A counted along it

[13] = target: C143 (V11I, C38A, K53A, C76A, C127A) (human) (UniProt Q14116); assay: cell-based or functional assay
C143 (V11I, C38A, K53A, C76A, C127A) (human), sequence (Q14116 37-193 V47I/C74A/K89A/C112A/C163A): as the sequence (Q14116 other isoform, or with tags, fused parts or gaps C38A K53A C38A K53A) above, with K6E, V11I, C76A, C127A counted along it

[14] = target: C086 (SEQ ID NO: 30; E6K, V11I, C38A, K53A, T63A, C76A, C127A) (human) (UniProt Q14116); assay: cell-based or functional assay
C086 (SEQ ID NO: 30; E6K, V11I, C38A, K53A, T63A, C76A, C127A) (human), sequence (Q14116 other isoform, or with tags, fused parts or gaps with the stated changes): as the sequence (Q14116 other isoform, or with tags, fused parts or gaps C38A K53A C38A K53A) above, with V11I, T63A, C76A, C127A counted along it

[15] = target: IL-18 polypeptide SEQ ID NO: 62 (E6K, C38A, K53A, C127A) (human) (UniProt Q14116); assay: cell-based or functional assay
IL-18 polypeptide SEQ ID NO: 62 (E6K, C38A, K53A, C127A) (human), sequence (Q14116 other isoform, or with tags, fused parts or gaps C38A K53A C127A C38A K53A C127A): as the sequence (Q14116 other isoform, or with tags, fused parts or gaps C38A K53A C38A K53A) above, with C127A counted along it

[16] = target: IL-18 polypeptide SEQ ID NO: 5 (E6K, V11I, C38A, K53A, T63A, C68A, C76A, M86C, C127A) (human) (UniProt Q14116); assay: cell-based or functional assay
IL-18 polypeptide SEQ ID NO: 5 (E6K, V11I, C38A, K53A, T63A, C68A, C76A, M86C, C127A) (human), sequence (Q14116 other isoform, or with tags, fused parts or gaps with the stated changes): as the sequence (Q14116 other isoform, or with tags, fused parts or gaps C38A K53A C38A K53A) above, with V11I, T63A, C68A, C76A, M86C, C127A counted along it

[17] = target: C148 (F2A, V11I, C38A, K53A, C76A, C127A) (human) (UniProt Q14116); assay: cell-based or functional assay
C148 (F2A, V11I, C38A, K53A, C76A, C127A) (human), sequence (Q14116 other isoform, or with tags, fused parts or gaps V11I C38A K53A C76A C127A V11I C38A K53A C76A C127A): as the sequence (Q14116 other isoform, or with tags, fused parts or gaps C38A K53A C38A K53A) above, with F2A, K6E, V11I, C76A, C127A counted along it

[18] = target: C167 (V11I, C38A, C76A, S105I, C127A) (human) (UniProt Q14116); assay: cell-based or functional assay
C167 (V11I, C38A, C76A, S105I, C127A) (human), sequence (Q14116 37-193 V47I/C74A/C112A/S141I/C163A): as the sequence (Q14116 other isoform, or with tags, fused parts or gaps C38A K53A C38A K53A) above, with K6E, V11I, A53K, C76A, S105I, C127A counted along it

[19] = target: C152 (V11I, S36A, C38A, K53A, C76A, C127A) (human) (UniProt Q14116); assay: cell-based or functional assay
C152 (V11I, S36A, C38A, K53A, C76A, C127A) (human), sequence (Q14116 37-193 V47I/S72A/C74A/K89A/C112A/C163A): as the sequence (Q14116 other isoform, or with tags, fused parts or gaps C38A K53A C38A K53A) above, with K6E, V11I, S36A, C76A, C127A counted along it

[20] = target: IL-18 WT (native sequence, SEQ ID NO: 1) (human) (UniProt Q14116)
IL-18 WT (native sequence, SEQ ID NO: 1) (human), sequence (Q14116 37-193): as the sequence (Q14116 other isoform, or with tags, fused parts or gaps C38A K53A C38A K53A) above, with K6E, A38C, A53K counted along it

IL-18 polypeptide SEQ ID NO: 50 (E06K, K53A, T63A) (human), sequence (Q14116 37-193 E42K/K89A/T99A): as the sequence (Q14116 other isoform, or with tags, fused parts or gaps C38A K53A C38A K53A) above, with A38C, T63A counted along it
C161 (K8R, V11I, C38A, C76A, Q103E, C127A) (human), sequence (Q14116 other isoform, or with tags, fused parts or gaps V11I C38A C76A Q103E C127A V11I C38A C76A Q103E C127A): as the sequence (Q14116 other isoform, or with tags, fused parts or gaps C38A K53A C38A K53A) above, with K6E, K8R, V11I, A53K, C76A, Q103E, C127A counted along it
C165 (V11I, C38A, S55R, C76A, C127A) (human), sequence (Q14116 37-193 V47I/C74A/S91R/C112A/C163A): as the sequence (Q14116 other isoform, or with tags, fused parts or gaps C38A K53A C38A K53A) above, with K6E, V11I, A53K, S55R, C76A, C127A counted along it
C155 (V11I, C38A, D40A, K53A, C76A, C127A) (human), sequence (Q14116 37-193 V47I/C74A/D76A/K89A/C112A/C163A): as the sequence (Q14116 other isoform, or with tags, fused parts or gaps C38A K53A C38A K53A) above, with K6E, V11I, D40A, C76A, C127A counted along it

IC50 (nM), IL-18BPa inhibition of IFNγ induction, NK-92 cells [1]: 0.681 nM | IC50 (nM), IL-18BPa inhibition of IFNγ induction, NK-92 cells [2]: > 1000 nM | IC50 (nM), IL-18BPa inhibition of IFNγ induction, NK-92 cells [3]: 0.44 nM | IC50 (nM), IL-18BPa inhibition of IFNγ induction, NK-92 cells [4]: 7.29 nM | IC50 (nM), IL-18BPa inhibition of IFNγ induction, NK-92 cells [5]: 146 nM | IC50 (nM), IL-18BPa inhibition of IFNγ induction, NK-92 cells [6]: 37.3 nM | IC50 (nM), IL-18BPa inhibition of IFNγ induction, NK-92 cells [7]: 1.81 nM | IC50 (nM), IL-18BPa inhibition of IFNγ induction, NK-92 cells [8]: > 1000 nM | IC50 (nM), IL-18BPa inhibition of IFNγ induction, NK-92 cells [9]: > 55 nM | IC50 (nM), IL-18BPa inhibition of IFNγ induction, NK-92 cells [10]: 7.79 nM | IC50 (nM), IL-18BPa inhibition of IFNγ induction, NK-92 cells [11]: 0.444 nM | IC50 (nM), IL-18BPa inhibition of IFNγ induction, NK-92 cells [12]: 733 nM | IC50 (nM), IL-18BPa inhibition of IFNγ induction, NK-92 cells [13]: 7.52 nM | IC50 (nM), IL-18BPa inhibition of IFNγ induction, NK-92 cells [14]: 284 nM | IC50 (nM), IL-18BPa inhibition of IFNγ induction, NK-92 cells [15]: 780 nM | IC50 (nM), IL-18BPa inhibition of IFNγ induction, NK-92 cells [16]: 62.4 nM | IC50 (nM), IL-18BPa inhibition of IFNγ induction, NK-92 cells [17]: 1.17 nM | IC50 (nM), IL-18BPa inhibition of IFNγ induction, NK-92 cells [18]: 0.176 nM | IC50 (nM), IL-18BPa inhibition of IFNγ induction, NK-92 cells [19]: 2.22 nM | IC50 (read off the curve), inhibition of IFNg production by NK-92 cells [20]: 1 to 2 nM
Substance: Fc-fused human IL-18 binding protein isoform a (IL-18BPa) (from UniProt O95998 31-194) (Fc fusion)

— patent US20240116997A1
